According to article PMC3871819, “Differentially expressed myo-inositol monophosphatase gene (CaIMP) in chickpea (Cicer arietinum L.) encodes a lithium-sensitive phosphatase enzyme with broad substrate specificity and improves seed germination and seedling growth under abiotic stresses” (Journal of Experimental Botany, 2013):

How the values were obtained:
[1] = substrate: O=P(O)(O)OC1O[C@@H](CO)[C@@H](O)[C@@H](O)[C@@H]1O; experiment: malachite green phosphate release assay; format: biochemical, Cicer arietinum; conditions: Mg2+ (optimum 5 mM; typical assay 3 mM MgCl2), 50 mM Tris-Cl pH 8, 37 °C
Text: (§1) malachite green phosphate release assay on CaIMP

[2] = substrate: O=P(O)(O)O[C@@H]1[C@H](O)[C@H](O)[C@@H](O)[C@H](O)[C@H]1O; experiment: malachite green phosphate release assay; format: biochemical, Cicer arietinum; conditions: Mg2+ (optimum 5 mM; typical assay 3 mM MgCl2), 50 mM Tris-Cl pH 8, 37 °C
Text: as §1

B1: CaIMP (Cicer arietinum) (protein)
chain: MVDNDSHSEFLASAVEAAHKAGDVIRKAFYQTKHVQHKGTVDLVTETDKACEELIFNHLKELYPTHKFIGEETTAAFGTTELTDDPTWIVDPLDGTTNFVHGFPFVCVSIGLTIGKVPTVGVVYNPIINELFTAIRGQGAFLNGNPIKVSSQTELVSSLLATEAGTKRDKATLDASTDRINSLLYKVRSLRMSGSCALNLCGVACGRLDLFFETGFGGPWDVAGGAVIVREAGGVVFDPSGADFDITAQRVAASNPLLKDAFVDALRQTE
notes: full-length ORF (813 bp, 270 aa, ~30 kDa) in pET-23b NdeI/XhoI, E. coli BL21(DE3)
[1]
  Km: 16.7 µM
  Vmax: 5.61 µmol/min/mg
[2]
  Km: 25.9 µM
  Vmax: 4.86 µmol/min/mg
